This series concerns NC(=O)c1cccnc1. Briefly: Sir2 catalyzed base exchange with H4 N-terminal peptide. The format is biochemical, yeast. To be noted: other: 0 mM isonicotinamide.

The Km is the concentration of substrate that gives half-maximal velocity. For “Yeast Sir2 (Saccharomyces cerevisiae S288C)”, the Michaelis constant (Km) stood at 120 µM.

The values above are taken from patent US8835467B2, “SIR2 regulation” (Albert Einstein College of Medicine of Yeshiva University, priority 2003, dated 2014).
